“Also recorded” adds a separate entry of the source.
B1: L221I: human TS mutant Leu221→Ile (protein)
chain: MPVAGSELPRRPLPPAAQERDAEPRPPHGELQYLGQIQHILRCGVRKDDRTGTGTLSVFGMQARYSLRDEFPLLTTKRVFWKGVLEELLWFIKGSTNAKELSSKGVKIWDANGSRDFLDSLGFSTREEGDLGPVYGFQWRHFGAEYRDMESDYSGQGVDQLQRVIDTIKTNPDDRRIIMCAWNPRDLPLMALPPCHALCQFYVVNSELSCQLYQRSGDMGIGVPFNIASYALLTYMIAHITGLKPGDFIHTLGDAHIYLNHIEPLKIQLQREPRPFPKLRILRKVGKIDDFKAEDFQIEGYNPHPTIKMEMAV
B2: L221F: human TS mutant Leu221→Phe (protein)
chain: MPVAGSELPRRPLPPAAQERDAEPRPPHGELQYLGQIQHILRCGVRKDDRTGTGTLSVFGMQARYSLRDEFPLLTTKRVFWKGVLEELLWFIKGSTNAKELSSKGVKIWDANGSRDFLDSLGFSTREEGDLGPVYGFQWRHFGAEYRDMESDYSGQGVDQLQRVIDTIKTNPDDRRIIMCAWNPRDLPLMALPPCHALCQFYVVNSELSCQLYQRSGDMGFGVPFNIASYALLTYMIAHITGLKPGDFIHTLGDAHIYLNHIEPLKIQLQREPRPFPKLRILRKVGKIDDFKAEDFQIEGYNPHPTIKMEMAV
B3: F59L: human TS mutant Phe59→Leu (protein)
chain: MPVAGSELPRRPLPPAAQERDAEPRPPHGELQYLGQIQHILRCGVRKDDRTGTGTLSVLGMQARYSLRDEFPLLTTKRVFWKGVLEELLWFIKGSTNAKELSSKGVKIWDANGSRDFLDSLGFSTREEGDLGPVYGFQWRHFGAEYRDMESDYSGQGVDQLQRVIDTIKTNPDDRRIIMCAWNPRDLPLMALPPCHALCQFYVVNSELSCQLYQRSGDMGLGVPFNIASYALLTYMIAHITGLKPGDFIHTLGDAHIYLNHIEPLKIQLQREPRPFPKLRILRKVGKIDDFKAEDFQIEGYNPHPTIKMEMAV
B4: R50C: human TS mutant Arg50→Cys (protein)
chain: MPVAGSELPRRPLPPAAQERDAEPRPPHGELQYLGQIQHILRCGVRKDDCTGTGTLSVFGMQARYSLRDEFPLLTTKRVFWKGVLEELLWFIKGSTNAKELSSKGVKIWDANGSRDFLDSLGFSTREEGDLGPVYGFQWRHFGAEYRDMESDYSGQGVDQLQRVIDTIKTNPDDRRIIMCAWNPRDLPLMALPPCHALCQFYVVNSELSCQLYQRSGDMGLGVPFNIASYALLTYMIAHITGLKPGDFIHTLGDAHIYLNHIEPLKIQLQREPRPFPKLRILRKVGKIDDFKAEDFQIEGYNPHPTIKMEMAV
B5: K47E: human TS mutant Lys47→Glu (protein)
chain: MPVAGSELPRRPLPPAAQERDAEPRPPHGELQYLGQIQHILRCGVREDDRTGTGTLSVFGMQARYSLRDEFPLLTTKRVFWKGVLEELLWFIKGSTNAKELSSKGVKIWDANGSRDFLDSLGFSTREEGDLGPVYGFQWRHFGAEYRDMESDYSGQGVDQLQRVIDTIKTNPDDRRIIMCAWNPRDLPLMALPPCHALCQFYVVNSELSCQLYQRSGDMGLGVPFNIASYALLTYMIAHITGLKPGDFIHTLGDAHIYLNHIEPLKIQLQREPRPFPKLRILRKVGKIDDFKAEDFQIEGYNPHPTIKMEMAV
B6: L221R: human TS mutant Leu221→Arg (protein)
chain: MPVAGSELPRRPLPPAAQERDAEPRPPHGELQYLGQIQHILRCGVRKDDRTGTGTLSVFGMQARYSLRDEFPLLTTKRVFWKGVLEELLWFIKGSTNAKELSSKGVKIWDANGSRDFLDSLGFSTREEGDLGPVYGFQWRHFGAEYRDMESDYSGQGVDQLQRVIDTIKTNPDDRRIIMCAWNPRDLPLMALPPCHALCQFYVVNSELSCQLYQRSGDMGRGVPFNIASYALLTYMIAHITGLKPGDFIHTLGDAHIYLNHIEPLKIQLQREPRPFPKLRILRKVGKIDDFKAEDFQIEGYNPHPTIKMEMAV
B7: L221S: human TS mutant Leu221→Ser (protein)
chain: MPVAGSELPRRPLPPAAQERDAEPRPPHGELQYLGQIQHILRCGVRKDDRTGTGTLSVFGMQARYSLRDEFPLLTTKRVFWKGVLEELLWFIKGSTNAKELSSKGVKIWDANGSRDFLDSLGFSTREEGDLGPVYGFQWRHFGAEYRDMESDYSGQGVDQLQRVIDTIKTNPDDRRIIMCAWNPRDLPLMALPPCHALCQFYVVNSELSCQLYQRSGDMGSGVPFNIASYALLTYMIAHITGLKPGDFIHTLGDAHIYLNHIEPLKIQLQREPRPFPKLRILRKVGKIDDFKAEDFQIEGYNPHPTIKMEMAV
B8: D49N: human TS mutant Asp49→Asn (protein)
chain: MPVAGSELPRRPLPPAAQERDAEPRPPHGELQYLGQIQHILRCGVRKDNRTGTGTLSVFGMQARYSLRDEFPLLTTKRVFWKGVLEELLWFIKGSTNAKELSSKGVKIWDANGSRDFLDSLGFSTREEGDLGPVYGFQWRHFGAEYRDMESDYSGQGVDQLQRVIDTIKTNPDDRRIIMCAWNPRDLPLMALPPCHALCQFYVVNSELSCQLYQRSGDMGLGVPFNIASYALLTYMIAHITGLKPGDFIHTLGDAHIYLNHIEPLKIQLQREPRPFPKLRILRKVGKIDDFKAEDFQIEGYNPHPTIKMEMAV
B9: F225S: human TS mutant Phe225→Ser (protein)
chain: MPVAGSELPRRPLPPAAQERDAEPRPPHGELQYLGQIQHILRCGVRKDDRTGTGTLSVFGMQARYSLRDEFPLLTTKRVFWKGVLEELLWFIKGSTNAKELSSKGVKIWDANGSRDFLDSLGFSTREEGDLGPVYGFQWRHFGAEYRDMESDYSGQGVDQLQRVIDTIKTNPDDRRIIMCAWNPRDLPLMALPPCHALCQFYVVNSELSCQLYQRSGDMGLGVPSNIASYALLTYMIAHITGLKPGDFIHTLGDAHIYLNHIEPLKIQLQREPRPFPKLRILRKVGKIDDFKAEDFQIEGYNPHPTIKMEMAV
B10: T51A: human TS mutant Thr51→Ala (protein)
chain: MPVAGSELPRRPLPPAAQERDAEPRPPHGELQYLGQIQHILRCGVRKDDRAGTGTLSVFGMQARYSLRDEFPLLTTKRVFWKGVLEELLWFIKGSTNAKELSSKGVKIWDANGSRDFLDSLGFSTREEGDLGPVYGFQWRHFGAEYRDMESDYSGQGVDQLQRVIDTIKTNPDDRRIIMCAWNPRDLPLMALPPCHALCQFYVVNSELSCQLYQRSGDMGLGVPFNIASYALLTYMIAHITGLKPGDFIHTLGDAHIYLNHIEPLKIQLQREPRPFPKLRILRKVGKIDDFKAEDFQIEGYNPHPTIKMEMAV
B11: pcDNA3hTS270: human TS mutant Ile108→Gly (protein, UniProt P04818 2-313, looked up, variant I108G)
Thymidylate synthase: PVAGSELPRRPLPPAAQERDAEPRPPHGELQYLGQIQHILRCGVRKDDRTGTGTLSVFGMQARYSLRDEFPLLTTKRVFWKGVLEELLWFIKGSTNAKELSSKGVKGWDANGSRDFLDSLGFSTREEGDLGPVYGFQWRHFGAEYRDMESDYSGQGVDQLQRVIDTIKTNPDDRRIIMCAWNPRDLPLMALPPCHALCQFYVVNSELSCQLYQRSGDMGLGVPFNIASYALLTYMIAHITGLKPGDFIHTLGDAHIYLNHIEPLKIQLQREPRPFPKLRILRKVEKIDDFKAEDFQIEGYNPHPTIKMEMAV
B12: pcDNA3hTS271: human TS mutant Ile108→Glu (protein, UniProt P04818 2-313, looked up, variant I108E)
Thymidylate synthase: PVAGSELPRRPLPPAAQERDAEPRPPHGELQYLGQIQHILRCGVRKDDRTGTGTLSVFGMQARYSLRDEFPLLTTKRVFWKGVLEELLWFIKGSTNAKELSSKGVKEWDANGSRDFLDSLGFSTREEGDLGPVYGFQWRHFGAEYRDMESDYSGQGVDQLQRVIDTIKTNPDDRRIIMCAWNPRDLPLMALPPCHALCQFYVVNSELSCQLYQRSGDMGLGVPFNIASYALLTYMIAHITGLKPGDFIHTLGDAHIYLNHIEPLKIQLQREPRPFPKLRILRKVEKIDDFKAEDFQIEGYNPHPTIKMEMAV
B13: pcDNA3hTS272: human TS mutant Ile108→Asn (protein, UniProt P04818 2-313, looked up, variant I108N)
Thymidylate synthase: PVAGSELPRRPLPPAAQERDAEPRPPHGELQYLGQIQHILRCGVRKDDRTGTGTLSVFGMQARYSLRDEFPLLTTKRVFWKGVLEELLWFIKGSTNAKELSSKGVKNWDANGSRDFLDSLGFSTREEGDLGPVYGFQWRHFGAEYRDMESDYSGQGVDQLQRVIDTIKTNPDDRRIIMCAWNPRDLPLMALPPCHALCQFYVVNSELSCQLYQRSGDMGLGVPFNIASYALLTYMIAHITGLKPGDFIHTLGDAHIYLNHIEPLKIQLQREPRPFPKLRILRKVEKIDDFKAEDFQIEGYNPHPTIKMEMAV

Tested on: Mouse TS-negative cells (FSthy21)
Experiment: Rescue of TS-negative cells by transfection of human TS cDNAs
Type: cell-based
Details: for TS catalytic function / complementation of growth of TS-negative cells: selective medium lacking thymidine; for FM3A TS cells surviving by transfection: selective medium without thymidine
Excerpt: Mouse TS-negative cells (FSthy21) were transfected with a plasmid (pcDNA3hTS*) encoding wild-type or a various mutant human TS enzyme by standard DOTAP transfection procedures. The host cells are deficient in TS, which are unable to survive without exogenous thymidine. […] In contrast, cells were unable to survive with transfection of other 11 human TS variants. For each surviving transfectant, at least 12 individual clones were isolated by soft agar or limiting dilution in 96-well plates. Those clones were expanded to cell lines by growth in normal media. Three cell clones for each transfectant were randomly selected for drug sensitivity assay.

| Molecule | TS catalytic function / complementation of growth of TS-negative cells | FM3A TS cells surviving by transfection |
| --- | --- | --- |
| B1 | able to complement growth | yes |
| B2 | inactive | no |
| B3 |  | no |
| B4 | catalytically inactive | no |
| B5 | able to complement growth; also recorded: retain TS catalytic function; also recorded: able to allow growth | yes |
| B6 |  | no |
| B7 | able to complement growth | yes |
| B8 | not tolerated | no |
| B9 | severely diminished TS catalytic activity | no |
| B10 | not tolerated | no |
| B11 |  | no |
| B12 |  | no |
| B13 |  | no |

From patent publication US6416987B1, “Mutants of thymidylate synthase and uses thereof” (Sloan Kettering Institute for Cancer Research, priority 1997, dated 2002)
